[ ]: non-standard residue; d: D form.

Experimental findings from patent US20170260575A1 are described below.

The test addresses integrin receptors on NIH/3T3 fibroblast cells. The experiment in a line: cell-based or functional assay.

In the case of cyclo(RGD[dF]K) (also: biotin-labelled (cRGDfK-biotin), bound via streptavidin) [cyclic Arg-Gly-Asp-d-Phe-Lys (cRGDfK) peptide], the decrease in Cy3B fluorescence under individual cells, Ttol=12 pN duplexes was determined as 13.7%; the decrease in Cy3B fluorescence under individual cells, Ttol=56 pN duplex stood at 6.5%; the fold decrease in MCR signal of controls (duplexes lacking cRGDfK, scrambled duplexes) against the 12 pN cRGDfK surface was 150 fold.
